What was measured:
Assay in all cases: X-ray crystallography; UMPNPP, Mg2+; Crystals: DNA mixed with ~10 mg/mL protein (4:1 molar) on ice 1 h; cryoprotectant/soak 100 mM HEPES pH 7.5, 20% PEG 4000, 10 mM MgCl2, 50 mM NaCl, 5% glycerol
[1] = target: hPol μΔ2 wildtype (DNA polymerase mu catalytic domain, Loop2 deleted) (human, UniProt Q9NP87 132-397+=G+411-494, internal_change)
hPol μΔ2 G433A = hPol μΔ2 G433A (human, UniProt Q9NP87 132-397+=G+411-494, G433A;internal_change)
hPol μΔ2 W434A = hPol μΔ2 W434A (human, UniProt Q9NP87 132-397+=G+411-494, W434A;internal_change)
hPol μΔ2 W434A, sequence (Q9NP87 other isoform, or with tags, fused parts or gaps W434A/| W434A W434A): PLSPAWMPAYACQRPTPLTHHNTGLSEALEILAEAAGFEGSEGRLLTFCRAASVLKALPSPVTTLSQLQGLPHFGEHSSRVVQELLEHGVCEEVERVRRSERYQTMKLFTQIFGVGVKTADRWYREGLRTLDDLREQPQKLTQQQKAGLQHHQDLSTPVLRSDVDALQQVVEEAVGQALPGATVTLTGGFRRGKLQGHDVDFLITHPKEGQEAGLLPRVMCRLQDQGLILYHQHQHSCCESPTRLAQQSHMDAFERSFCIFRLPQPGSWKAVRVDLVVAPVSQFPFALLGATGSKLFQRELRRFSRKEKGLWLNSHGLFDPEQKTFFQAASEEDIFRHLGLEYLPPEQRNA

Measured: binding result

hPol μΔ2 wildtype (DNA polymerase mu catalytic domain, Loop2 deleted), sequence (Q9NP87 other isoform, or with tags, fused parts or gaps | mutant): as the sequence (Q9NP87 other isoform, or with tags, fused parts or gaps W434A/| W434A W434A) above, with A291W counted along it
hPol μΔ2 G433A, sequence (Q9NP87 other isoform, or with tags, fused parts or gaps G433A/| G433A G433A): as the sequence (Q9NP87 other isoform, or with tags, fused parts or gaps W434A/| W434A W434A) above, with G290A, A291W counted along it

B1: 1-nt gapped DNA (pre-catalytic) (dsDNA)
DNA 1: CGGCATACG
DNA 2: CGTA
DNA 3: GCCG
modifications: 5'-phosphate on downstream primer GCCG
binds: [1] | hPol μΔ2 G433A | hPol μΔ2 W434A

Source: article PMC5587726
